Molecular target: 破伤风毒素 (Clostridium tetani, UniProt P04958 2-1315)
Sequence (P04958 2-457 limits assumed, chain 1 of 2): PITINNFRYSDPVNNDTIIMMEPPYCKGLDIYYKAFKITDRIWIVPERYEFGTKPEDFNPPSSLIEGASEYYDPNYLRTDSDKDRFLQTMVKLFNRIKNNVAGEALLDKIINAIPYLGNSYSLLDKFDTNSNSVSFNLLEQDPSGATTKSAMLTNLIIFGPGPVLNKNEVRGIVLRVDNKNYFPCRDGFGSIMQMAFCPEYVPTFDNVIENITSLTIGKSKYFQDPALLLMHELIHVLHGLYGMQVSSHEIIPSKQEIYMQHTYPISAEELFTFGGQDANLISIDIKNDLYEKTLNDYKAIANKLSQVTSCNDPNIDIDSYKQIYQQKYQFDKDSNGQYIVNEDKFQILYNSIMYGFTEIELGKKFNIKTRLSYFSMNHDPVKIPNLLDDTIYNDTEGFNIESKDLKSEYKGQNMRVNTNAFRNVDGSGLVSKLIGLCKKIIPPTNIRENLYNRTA
Sequence (P04958 458-1315 limits assumed, chain 2 of 2): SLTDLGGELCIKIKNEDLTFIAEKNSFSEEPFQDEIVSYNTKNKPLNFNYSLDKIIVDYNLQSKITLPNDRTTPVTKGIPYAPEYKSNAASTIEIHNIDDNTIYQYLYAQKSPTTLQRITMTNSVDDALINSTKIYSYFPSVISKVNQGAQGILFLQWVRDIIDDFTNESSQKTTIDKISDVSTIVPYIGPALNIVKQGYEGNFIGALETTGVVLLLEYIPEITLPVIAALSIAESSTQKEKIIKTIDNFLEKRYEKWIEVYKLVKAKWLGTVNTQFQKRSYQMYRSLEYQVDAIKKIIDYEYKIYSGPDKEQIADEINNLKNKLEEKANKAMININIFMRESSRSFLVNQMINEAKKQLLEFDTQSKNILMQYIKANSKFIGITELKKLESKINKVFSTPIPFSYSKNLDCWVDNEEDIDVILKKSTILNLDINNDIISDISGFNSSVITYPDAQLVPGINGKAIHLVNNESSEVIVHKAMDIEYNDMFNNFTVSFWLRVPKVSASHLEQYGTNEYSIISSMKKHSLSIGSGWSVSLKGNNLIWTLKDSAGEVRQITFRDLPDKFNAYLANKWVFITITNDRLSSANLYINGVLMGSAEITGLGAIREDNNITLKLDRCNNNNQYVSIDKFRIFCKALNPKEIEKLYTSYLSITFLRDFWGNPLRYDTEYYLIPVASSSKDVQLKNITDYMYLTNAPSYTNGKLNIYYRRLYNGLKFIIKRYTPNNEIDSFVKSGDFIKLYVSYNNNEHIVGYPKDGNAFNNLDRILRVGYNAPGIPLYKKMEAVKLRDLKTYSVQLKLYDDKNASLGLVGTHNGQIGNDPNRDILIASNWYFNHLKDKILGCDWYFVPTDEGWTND

B1: 抗体TRN1015 (antibody, V domains shown)
VH: EVQLVESGGGRVKPGGSLRLSCSVSGFGIGIYTMNWVRQAPGKGLEWVSSISGTSQYIYYANSVRGRFTISRDNAENSLYLQLNNLRAEDTALYYCVSGSSLDYWGQGTLVTISS
VL: DIQLTQSPSSLSASVGGRVTITCRASQNIGTNLNWFQQKPGTAPNLLIYGASTLQSGVPSRFSGSGSGTTFTLTIDSLQPEDFATYYCYQNYNSPKTFGQGTKVDLK
koff: 9.4e-05 s⁻¹
kon: 38800 M⁻¹ s⁻¹
